Experimental data taken from patent publication US20140112915A1 (Novartis, published 2014).
Read-outs that look alike come from different tables or passages of the source.

Columns and labels:
[1] = target: T1, Native human IL-18 (human, UniProt Q14116 37-193); assay: cell-based or functional assay
T1 sequence: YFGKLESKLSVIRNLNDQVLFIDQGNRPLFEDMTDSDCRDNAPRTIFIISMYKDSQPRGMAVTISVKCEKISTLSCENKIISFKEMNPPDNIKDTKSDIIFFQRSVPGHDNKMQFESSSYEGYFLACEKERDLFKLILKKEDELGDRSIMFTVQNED

[2] = target: T2, Recombinant human IL-18 (human, UniProt Q14116 37-193); assay: cell-based or functional assay
T2 sequence: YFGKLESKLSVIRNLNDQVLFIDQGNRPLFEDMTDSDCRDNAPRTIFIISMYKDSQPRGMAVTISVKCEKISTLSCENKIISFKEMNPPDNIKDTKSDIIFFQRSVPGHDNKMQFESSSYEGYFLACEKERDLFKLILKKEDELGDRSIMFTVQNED

[3] = target: T1, Native human IL-18; assay: cell-based or functional assay; remark: listed apart in the source
[4] = target: T2, Recombinant human IL-18; assay: cell-based or functional assay; remark: listed apart in the source
[5] = target: T2, Recombinant human IL-18; assay: solution equilibrium titration (SET), ECL detection
Method: Goat-anti-human (Fab)₂ fragment specific antibodies (Dianova) were labeled with MSD SULFO-TAG™ NHS-Ester (Meso Scale Discovery, Gaithersburg, Md., USA) according to the manufacturer's instructions. Experiments were carried out in polypropylene microtiter plates and phosphate-based assay buffer. Unlabeled human IL-18 was serially diluted, starting with a concentration at least 10 times higher than the expected KD. Wells without antigen were used to determine Bₘₐₓ values; wells with assay buffer were used to determine background. After addition of a constant amount of antibodies or fragment thereof (e.g. 10 pM final concentration in 60 μl final volume), the mixture was incubated over night at RT.
Streptavidin MSD plates were blocked with BSA-containing phosphate buffer over night. After blocking of the plate, biotinylated human IL-18 was added and incubated for 1 h at RT. Subsequently the equilibrated samples were transferred to those plates and incubated for a short time at RT. After washing, MSD SULFO-TAG labeled detection antibody (goat anti-human (Fab)₂) was added to the MSD plate and incubated for a short time at RT.
Where IL-18 from cynomolgus monkey (cm IL-18) was also tested, the resulting KD are indicated in brackets.

[6] = target: T1, Native human IL-18; assay: cell-based or functional assay; remark: listed apart in the source
[7] = target: T2, Recombinant human IL-18; assay: cell-based or functional assay; remark: listed apart in the source
[8] = target: T3, Recombinant cynomolgus IL-18 (cynomolgus monkey, UniProt Q14116 37-193 (human entry)); assay: cell-based or functional assay
T3 chain: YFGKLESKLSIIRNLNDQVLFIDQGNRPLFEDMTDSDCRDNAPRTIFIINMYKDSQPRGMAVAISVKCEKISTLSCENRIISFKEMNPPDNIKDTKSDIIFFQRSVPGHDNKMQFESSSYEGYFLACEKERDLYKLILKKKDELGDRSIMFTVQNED

Row | Binder | IC50, inhibition of IFN-γ release, PBMC, Native IL-18 (LPS/IL-12) [1] [nM] | IC50, inhibition of IFN-γ release, KG-1 cells, Hu IL-18 (1 nM) [2] [nM] | IC50, inhibition of IFN-γ release, human whole blood, LPS/IL-12 (native IL-18) [3] [nM] | IC50, inhibition of IFN-γ release, human whole blood, recombinant human IL-18 (7 nM) [4] [nM] | Kd [5] [nM] | IC50, inhibition of IFN-γ release, PBMC, Native IL-18 (LPS/IL-12) [6] [nM] | IC50, inhibition of IFN-γ release, KG-1 cells, Hu IL-18 (1 nM) [7] [nM] | IC50, inhibition of IFN-γ release, PBMC, Hu IL-18 (recombinant) [7] [nM] | IC50, inhibition of IFN-γ release, KG-1 cells, Cyno IL-18 [8] [nM]
1 | MOR9464_N30H (antibody, human IgG1, lambda, L234A L235A, V domains shown) VH: EVQLVQSGAEVKKPGSSVKVSCKASGGTFHSYAISWVRQAPGQGLEWMGNIIPMTGQTYYAQKFQGRVTITADESTSTAYMELSSLRSEDTAVYYCARAAYHPLVFDNWGQGTLVTVSS VL: DIVLTQPPSVSGAPGQRVTISCSGSSSNIGNHYVNWYQQLPGTAPKLLIYRNNHRPSGVPDRFSGSKSGTSASLAITGLQSEDEADYYCQSWDYSGFSTVFGGGTKLTVLG | 0.1 | 0.23 | 23 | 11.9 | – | – | – | – | –
2 | MOR9464_N30R (antibody, human IgG1, lambda, L234A L235A, V domains shown) VH: EVQLVQSGAEVKKPGSSVKVSCKASGGTFRSYAISWVRQAPGQGLEWMGNIIPMTGQTYYAQKFQGRVTITADESTSTAYMELSSLRSEDTAVYYCARAAYHPLVFDNWGQGTLVTVSS VL: DIVLTQPPSVSGAPGQRVTISCSGSSSNIGNHYVNWYQQLPGTAPKLLIYRNNHRPSGVPDRFSGSKSGTSASLAITGLQSEDEADYYCQSWDYSGFSTVFGGGTKLTVLG | 0.04 | 0.47 | 11 | 10.1 | – | – | – | – | –
3 | MOR9464_N30L (antibody, human IgG1, lambda, L234A L235A, V domains shown) VH: EVQLVQSGAEVKKPGSSVKVSCKASGGTFLSYAISWVRQAPGQGLEWMGNIIPMTGQTYYAQKFQGRVTITADESTSTAYMELSSLRSEDTAVYYCARAAYHPLVFDNWGQGTLVTVSS VL: DIVLTQPPSVSGAPGQRVTISCSGSSSNIGNHYVNWYQQLPGTAPKLLIYRNNHRPSGVPDRFSGSKSGTSASLAITGLQSEDEADYYCQSWDYSGFSTVFGGGTKLTVLG | 0.05 | 0.23 | 15.5 | 9.85 | – | – | – | – | –
4 | MOR9464_N30G (antibody, human IgG1, lambda, L234A L235A, V domains shown) VH: EVQLVQSGAEVKKPGSSVKVSCKASGGTFGSYAISWVRQAPGQGLEWMGNIIPMTGQTYYAQKFQGRVTITADESTSTAYMELSSLRSEDTAVYYCARAAYHPLVFDNWGQGTLVTVSS VL: DIVLTQPPSVSGAPGQRVTISCSGSSSNIGNHYVNWYQQLPGTAPKLLIYRNNHRPSGVPDRFSGSKSGTSASLAITGLQSEDEADYYCQSWDYSGFSTVFGGGTKLTVLG | 0.11 | 0.54 | 15.1 | 25.1 | – | – | – | – | –
5 | MOR9464_N30I (antibody, human IgG1, lambda, L234A L235A, V domains shown) VH: EVQLVQSGAEVKKPGSSVKVSCKASGGTFISYAISWVRQAPGQGLEWMGNIIPMTGQTYYAQKFQGRVTITADESTSTAYMELSSLRSEDTAVYYCARAAYHPLVFDNWGQGTLVTVSS VL: DIVLTQPPSVSGAPGQRVTISCSGSSSNIGNHYVNWYQQLPGTAPKLLIYRNNHRPSGVPDRFSGSKSGTSASLAITGLQSEDEADYYCQSWDYSGFSTVFGGGTKLTVLG | 0.11 | 0.32 | 13.2 | 11.4 | – | – | – | – | –
6 | MOR9464_N30V (antibody, human IgG1, lambda, L234A L235A, V domains shown) VH: EVQLVQSGAEVKKPGSSVKVSCKASGGTFVSYAISWVRQAPGQGLEWMGNIIPMTGQTYYAQKFQGRVTITADESTSTAYMELSSLRSEDTAVYYCARAAYHPLVFDNWGQGTLVTVSS VL: DIVLTQPPSVSGAPGQRVTISCSGSSSNIGNHYVNWYQQLPGTAPKLLIYRNNHRPSGVPDRFSGSKSGTSASLAITGLQSEDEADYYCQSWDYSGFSTVFGGGTKLTVLG | 0.11 | 0.29 | 19.6 | 12.7 | – | – | – | – | –
7 | MOR9464_N30Y (antibody, human IgG1, lambda, L234A L235A, V domains shown) VH: EVQLVQSGAEVKKPGSSVKVSCKASGGTFYSYAISWVRQAPGQGLEWMGNIIPMTGQTYYAQKFQGRVTITADESTSTAYMELSSLRSEDTAVYYCARAAYHPLVFDNWGQGTLVTVSS VL: DIVLTQPPSVSGAPGQRVTISCSGSSSNIGNHYVNWYQQLPGTAPKLLIYRNNHRPSGVPDRFSGSKSGTSASLAITGLQSEDEADYYCQSWDYSGFSTVFGGGTKLTVLG | 0.03 | 0.23 | 17.9 | 12.4 | – | – | – | – | –
8 | MOR9464_N30Q (antibody, human IgG1, lambda, L234A L235A, V domains shown) VH: EVQLVQSGAEVKKPGSSVKVSCKASGGTFQSYAISWVRQAPGQGLEWMGNIIPMTGQTYYAQKFQGRVTITADESTSTAYMELSSLRSEDTAVYYCARAAYHPLVFDNWGQGTLVTVSS VL: DIVLTQPPSVSGAPGQRVTISCSGSSSNIGNHYVNWYQQLPGTAPKLLIYRNNHRPSGVPDRFSGSKSGTSASLAITGLQSEDEADYYCQSWDYSGFSTVFGGGTKLTVLG | 0.07 | 0.22 | 13.4 | 8.1 | – | – | – | – | –
9 | MOR10501 (antibody, human IgG1, lambda, L234A L235A, V domains shown, also called MOR010501) VH: EVQLQESGPGLVKPGETLSLTCTVSGGSISTGSYYWNWIRQAPGKGLEWIGEIWHSGPTFYNPSLKSRVTISVDTSKNQFSLKLSSVTAADTAVYYCARTTRYWMSHILAYGMDYWGQGTLVTVSS VL: DIVLTQPPSVSGAPGQRVTISCSGSSSNIGNHYVSWYQQLPGTAPKLLIYANTKRPSGVPDRFSGSKSGTSASLAITGLQSEDEADYYCSSYDGSQSIVFGGGTKLTVLG | – | – | 101 | 20.3 | 0.001 | 1.3 | 0.3 | 6.3 | 0.2
10 | MOR10497 (antibody, human IgG1, lambda, L234A L235A, V domains shown, also called MOR010497) VH: EVQLQESGPGLVKPGETLSLTCTVSGGSISTGSYYWNWIRQAPGKGLEWIGEIQSPGYTFYNPSLKSRVTISVDTSKNQFSLKLSSVTAADTAVYYCARTTRYWMSHILAYGMDYWGQGTLVTVSS VL: DIVLTQPPSVSGAPGQRVTISCSGSSSNIGNHYVSWYQQLPGTAPKLLIYANTKRPSGVPDRFSGSKSGTSASLAITGLQSEDEADYYCSSYDGSQSIVFGGGTKLTVLG | – | – | 108 | 16.1 | 0.002 | 1.8 | 0.3 | 5.8 | 0.3
11 | MOR10502 (antibody, human IgG1, lambda, L234A L235A, V domains shown, also called MOR010502) VH: EVQLQESGPGLVKPGETLSLTCTVSGGSISTGSYYWNWIRQAPGKGLEWIGEIHGHGFTFYNPSLKSRVTISVDTSKNQFSLKLSSVTAADTAVYYCARTTRYWMSHILAYGMDYWGQGTLVTVSS VL: DIVLTQPPSVSGAPGQRVTISCSGSSSNIGNHYVSWYQQLPGTAPKLLIYANTKRPSGVPDRFSGSKSGTSASLAITGLQSEDEADYYCSSYDGSQSIVFGGGTKLTVLG | – | – | 110 | 17.9 | 0.004 | 2.3 | 0.4 | 6.3 | 0.2
